The values that follow are results of earlier work, collected in patent US11474093B2, “Analysis method of protein-protein interaction and a screening method of protein-protein interaction inhibitors using a nanopore” (Korea Research Institute of Bioscience and Biotechnology, priority 2016, dated 2022).

Like-named read-outs stand apart in the source and are kept apart here.

In this data set the target is MDM2 (Homo sapiens, UniProt Q00987).
MDM2, sequence (Q00987 whole entry): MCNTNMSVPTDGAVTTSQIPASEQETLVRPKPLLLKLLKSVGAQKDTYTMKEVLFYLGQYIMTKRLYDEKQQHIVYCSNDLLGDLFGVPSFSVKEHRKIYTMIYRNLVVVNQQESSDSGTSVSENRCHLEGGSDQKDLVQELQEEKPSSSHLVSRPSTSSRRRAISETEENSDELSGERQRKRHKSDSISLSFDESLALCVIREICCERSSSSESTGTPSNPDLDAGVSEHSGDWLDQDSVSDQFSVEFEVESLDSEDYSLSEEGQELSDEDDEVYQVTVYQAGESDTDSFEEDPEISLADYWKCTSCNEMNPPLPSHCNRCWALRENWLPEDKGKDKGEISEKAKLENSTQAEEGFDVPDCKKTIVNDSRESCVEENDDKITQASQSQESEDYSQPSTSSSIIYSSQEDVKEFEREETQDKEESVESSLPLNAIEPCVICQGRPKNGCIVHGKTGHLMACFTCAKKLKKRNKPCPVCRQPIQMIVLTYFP

For the substance “p53TAD: residues 1 to 73 of p53 transactivation domain (TAD)”, the Kd (as a rule, a measure of binding affinity in units of concentration) (read-out: Kd of the interaction between MDM2 and p53TAD) was 600 nM; the equilibrium dissociation constant (Kd) (read-out: dissociation coefficient (Kd) with MDM2) is approximately 600 nM.
